Data on 56 variants can be found in PMC11969024 (2025).

B1: peptide HD2 (from tick evasin EVA4) / CXCL14 (biotinylated, synthetic) (parent complex)
chain 1: EEDDYTAYAPLTCYFT
chain 2: SKCKCSRKGPKIRYSDVKKLEMKPKYPHCEEKMVIITTKSVSRYRGQEHCLHPKLQSTKRFIKWYNAWNEKRRVYEE
B2: peptide HD2 (from tick evasin EVA4) / CXCL11 (biotinylated, synthetic) (parent complex)
chain 1: EEDDYTAYAPLTCYFT
chain 2: FPMFKRGRCLCIGPGVKAVKVADIEKASIMYPSNNCDKIEVIITLKENKGQRCLNPKSKQARLIIKKVERKNF

One test covers variants of B1.
As for chain 1 EEDDYTAYAQLTCYFT, the enrichment is -4.65 log2 (difference from the parental peptide).

For chain 1 EEDDYTAYAHLTCYFT, the enrichment is 0.862 log2 (difference from the parental peptide).

Take chain 1 EEDDYTAYAMLTCYFT: the enrichment was 2.33 log2 (difference from the parental peptide).

As to chain 1 EEDDYTAYAFLTCYFT, the enrichment was -2.31 log2 (difference from the parental peptide).

For chain 1 EEDDYTAYAELTCYFT, the enrichment was 3.27 log2 (difference from the parental peptide).

With chain 1 EEDDYTAMAPLTCYFT, the enrichment is 1.74 log2 (difference from the parental peptide).

Consider chain 1 EENDYTAYAPLTCYFT, for which the enrichment is 1.21 log2 (difference from the parental peptide).

On to chain 1 EEYDYTAYAPLTCYFT, for which the enrichment is 0.926 log2 (difference from the parental peptide).

On to chain 1 EEGDYTAYAPLTCYFT, for which the enrichment was 1.82 log2 (difference from the parental peptide).

Take chain 1 EEDDYTAYAPLMCYFT: the enrichment was -4.31 log2 (difference from the parental peptide).

On to chain 1 EEDDYTAYAPLECYFT, for which the enrichment was -5.22 log2 (difference from the parental peptide).

For chain 1 EEDDYTAYAPLNCYFT, the enrichment is -6.02 log2 (difference from the parental peptide).

Regarding chain 1 EEDDYTAYAPLGCYFT, the enrichment is -8.56 log2 (difference from the parental peptide).

In the case of chain 1 EEDDYTAYAPVTCYFT, the enrichment was -0.136 log2 (difference from the parental peptide).

Turning to chain 1 EEDDYTAYAPATCYFT, the enrichment is 0.339 log2 (difference from the parental peptide).

Turning to chain 1 VEDDYTAYAPLTCYFT, the enrichment was -5.63 log2 (difference from the parental peptide).

In the case of chain 1 SEDDYTAYAPLTCYFT, the enrichment is -6.03 log2 (difference from the parental peptide).

For the variant chain 1 EEDDLTAYAPLTCYFT, the enrichment was -2.83 log2 (difference from the parental peptide).

With chain 1 EEDDMTAYAPLTCYFT, the enrichment was -5.9 log2 (difference from the parental peptide).

On to chain 1 EEDFYTAYAPLTCYFT, for which the enrichment was -0.493 log2 (difference from the parental peptide).

chain 1 EEDDYTAYAPLTPYFT: the enrichment is -6.86 log2 (difference from the parental peptide).

For the variant chain 1 EEDDYTAYAPLTTYFT, the enrichment is -5.9 log2 (difference from the parental peptide).

Regarding chain 1 EEDDYTAYAPLTCYVT, the enrichment was 0.451 log2 (difference from the parental peptide).

Consider chain 1 EEDDYTAYAPLTCYCT, for which the enrichment was 1.14 log2 (difference from the parental peptide).

Take chain 1 EEDDYTAYAPLTCYWT: the enrichment was -6.44 log2 (difference from the parental peptide).

For chain 1 EEDDYTAYAPLTCYNT, the enrichment was -3.99 log2 (difference from the parental peptide).

In the case of chain 1 EEDDYTAYAPLTCYLT, the enrichment was -4.99 log2 (difference from the parental peptide).

As for chain 1 EEDDYTAYAPLTCYGT, the enrichment is -8.03 log2 (difference from the parental peptide).

On to chain 1 EEDDYTAYAPLTCYST, for which the enrichment is -6.23 log2 (difference from the parental peptide).

As to chain 1 EEDDYTAYAPLTCYHT, the enrichment is -4.57 log2 (difference from the parental peptide).

With chain 1 EEDDYTAYAPLTCYYT, the enrichment was 3.35 log2 (difference from the parental peptide).

For chain 1 EEDDYTAYKPLTCYFT, the enrichment is -4.89 log2 (difference from the parental peptide).

Take chain 1 EEDDYTAYTPLTCYFT: the enrichment is 2.11 log2 (difference from the parental peptide).

With chain 1 EEDDYTAYGPLTCYFT, the enrichment is -5.95 log2 (difference from the parental peptide).

Turning to chain 1 EEDDYTAYFPLTCYFT, the enrichment is 0.278 log2 (difference from the parental peptide).

Take chain 1 EEDDYTYYAPLTCYFT: the enrichment is 2.89 log2 (difference from the parental peptide).

As to chain 1 EEDDYTHYAPLTCYFT, the enrichment is 1.29 log2 (difference from the parental peptide).

With chain 1 EEDDYMAYAPLTCYFT, the enrichment is 1.47 log2 (difference from the parental peptide).

With chain 1 EEDDYSAYAPLTCYFT, the enrichment is -0.144 log2 (difference from the parental peptide).

Regarding chain 1 EEDDYEAYAPLTCYFT, the enrichment was 2.79 log2 (difference from the parental peptide).

chain 1 EEDDYPAYAPLTCYFT: the enrichment was 1.85 log2 (difference from the parental peptide).

Take chain 1 EEDDYNAYAPLTCYFT: the enrichment was 0.149 log2 (difference from the parental peptide).

On to chain 1 EEDDYYAYAPLTCYFT, for which the enrichment was 3.46 log2 (difference from the parental peptide).

Turning to chain 1 EEDDYTAYAPLTCYFH, the enrichment was 3.56 log2 (difference from the parental peptide).

chain 1 EEDDYTAYAPLTCYFL: the enrichment was 1.24 log2 (difference from the parental peptide).

For chain 1 EEDDYTAYAPLTCYFC, the enrichment was 1.19 log2 (difference from the parental peptide).

On to chain 1 ENDDYTAYAPLTCYFT, for which the enrichment was 0.243 log2 (difference from the parental peptide).

For chain 1 EEDDYTAYAPLTCAFT, the enrichment was -0.328 log2 (difference from the parental peptide).

The variants in another test derive from B2.
Take chain 1 EEDDYTAYAPLTCYDT: the enrichment is -1.93 log2 (difference from the parental peptide).

In the case of chain 1 EEDDYTAYAPLTCYPT, the enrichment was -3.5 log2 (difference from the parental peptide).

As for chain 1 EEDDYTAYAPLTCYKT, the enrichment was -4.14 log2 (difference from the parental peptide).

For the variant chain 1 EEDDYTAYAPLTCYWT, the enrichment was -6.32 log2 (difference from the parental peptide).

In the case of chain 1 EEDDYTAYAPLTCYIT, the enrichment was -3.39 log2 (difference from the parental peptide).

As to chain 1 EEDDYTAYAPLTNYFT, the enrichment was -3.76 log2 (difference from the parental peptide).

Consider chain 1 EEDDYTAYAPLTTYFT, for which the enrichment is -3.56 log2 (difference from the parental peptide).

For the variant chain 1 EEDDYTAYAPLTSYFT, the enrichment was -1.17 log2 (difference from the parental peptide).
